Reference: the supplement of paper PMC10724198

How the values were obtained:
[1] = test system: Saccharomyces cerevisiae; assay: protein stability index of tFT-peptide fusion in wild type (PSI (0-1 scale)); higher = more stable (slower turnover); settings: genetic background: wild type
Protocol: (§1)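 MPS profiling in S. cerevisiae of two library types built from selected 12-aa C-degron peptides (IN1, IN2, LN1, LN3, VN2, R1-R5, W1-W3, Atg1 and Rpa12 C-termini): saturation mutagenesis libraries and C-terminal +1 capping libraries (13 aa). Each peptide is fused to the C-terminus of a sfGFP-mCherry timer, after a GGGS linker. Cells are FACS-sorted into 8 mCherry/sfGFP bins and sequenced. PSI runs from 0 (unstable) to 1 (stable), measured once in wild type and in the das1Δ or doa10Δ background.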

[2] = test system: Saccharomyces cerevisiae; assay: protein stability index of tFT-peptide fusion in deletion strain of DAS1 (PSI (0-1 scale)); higher = more stable (slower turnover)
Protocol: as §1
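Throughout, for protein stability index of tFT-peptide fusion in deletion strain of DAS1: PSI is a weighted mean of each variant's read distribution over the sorted stability bins, computed only for variants having over 10 reads in total.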
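Throughout, for protein stability index of tFT-peptide fusion in wild type: PSI derived as read-weighted mean over the 8 sorting bins, only variants exceeding 10 total reads kept, mCherry placed adjacent to the peptide and sfGFP distal.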

Sequence	protein stability index [1]	protein stability index [2]
LVVYLSNVACIN	0.344	0.5
ARWRVGLWRGASR	0.663	0.676
VRGRVGGWRLVG	0.121	0.675
WKILRQKMNHQN	0.244	0.678
RLIQPLPVQFLNR	0.659	0.669
CTSCGYKRRTNN	0.477	0.683
VRGARGGWRLVG	0.273	0.686
ARWRVGLWRFAS	0.101	0.675
PDKWNHLIKLLN	0.0782	0.576
VRGAVGGWLLVG	0.156	0.668
PSLAATFWRVVG	0.135	0.674
ALWRVGLWRGAS	0.464	0.707
CTSCGYKFRTYN	0.31	0.696
KKHPKGQKQKIN	0.14	0.684
PDKRNHLIKLVN	0.158	0.645
LCILRQKMNHQN	0.115	0.655
AGWRVGLWRGAS	0.424	0.722
RLIQPLGVQFLN	0.0859	0.66
LVVYLSRVACIN	0.087	0.356
PSLFASFWRVVG	0.109	0.694
PSLAASFWRAVG	0.158	0.699
VRGAVGGWRLYG	0.239	0.686
PSLAASFWRVVP	0.539	0.688
ARWRVGLWRGAI	0.529	0.685

Sequence	protein stability index [1]	protein stability index [2]
PSLAASFIRVVG	0.46	0.435
KKHKKGQKQKDN	0.607	0.638
LKILRQKMNHTN	0.197	0.672
FSMRWNFRYWVN	0.0584	0.536
PSLAASFWGVVG	0.697	0.715
KKHKKGQKQSIN	0.673	0.577
PSLRASFWRVVG	0.141	0.688
PDKRSHLIKLLN	0.0872	0.631
VRGAVNGWRLVG	0.157	0.694
PSWAASFWRVVG	0.154	0.714
LVVYLSHVACIN	0.148	0.411
LFVYLSCVACIN	0.0334	0.0251
ARWRIGLWRGAS	0.327	0.671
RLIQPSPVQFLN	0.0855	0.683
RLIQPLPVQYLN	0.0462	0.661
PSGAASFWRVVG	0.16	0.668
PDKRNHLIPLLN	0.405	0.585
LKIGRQKMNHQN	0.414	0.674
LKIQRQKMNHQN	0.23	0.676
KKHKKGQKPKIN	0.574	0.626
LKILGQKMNHQN	0.365	0.678
LKPLRQKMNHQN	0.172	0.682
VRWRVGLWRGAS	0.209	0.648
LYILRQKMNHQN	0.135	0.666

Sequence	protein stability index [1]	protein stability index [2]
VRGAVRGWRLVG	0.146	0.7
LKILVQKMNHQN	0.218	0.662
ARWMVGLWRGAS	0.449	0.709
FSMRWTFRYWVM	0.136	0.482
CTSCGYKFRTNN	0.247	0.691
FSMRNTFRYWVN	0.0817	0.578
FSMRWTFREWVN	0.0594	0.57
FSMRWTFRYWVNP	0.533	0.544
ARWVVGLWRGAS	0.39	0.694
PSLDASFWRVVG	0.128	0.677
PDKRNHKIKLLN	0.086	0.599
PDKRAHLIKLLN	0.112	0.617
VRGAVGGWRLVGT	0.678	0.689
LVVYLSCVACNN	0.127	0.16
PDLRNHLIKLLN	0.13	0.614
CTSCGYKFRTNNF	0.711	0.712
PYLAASFWRVVG	0.151	0.699
RLIQPLCVQFLN	0.0777	0.605
VRGAVGGWRLPG	0.683	0.681
KKHKKGQKQKMN	0.0838	0.533
CTSCGYKFRTTN	0.191	0.699
RLQQPLPVQFLN	0.0653	0.574
PDKRNHLIMLLN	0.193	0.624
RLIQPLPVEFLN	0.0996	0.586

Sequence	protein stability index [1]	protein stability index [2]
LVVYLSCVACCN	0.0106	0.0342
PDKRNVLIKLLN	0.125	0.589
PDKRNHLIKRLN	0.104	0.602
ARWRVGLWRGASH	0.66	0.685
LDILRQKMNHQN	0.121	0.707
FSMRWTFRYWNN	0.158	0.549
KKHKKGQKQKINL	0.652	0.663
ARWRVCLWRGAS	0.397	0.705
CTSCGYKFRTNA	0.266	0.697
FSMEWTFRYWVN	0.112	0.425
LKILRQKMNHQD	0.622	0.667
LKILRQKMNHQG	0.215	0.656
RLIQQLPVQFLN	0.0315	0.602
PSLAASFWRVVGT	0.674	0.698
CTSCGYKFRFNN	0.303	0.699
ARWRVGLWFGAS	0.626	0.666
ARWRVGLWSGAS	0.67	0.693
ALIQPLPVQFLN	0.101	0.649
FSMRWTFRRWVN	0.11	0.623
LKYLRQKMNHQN	0.17	0.629
VRGAVGGWRLAG	0.233	0.695
LEILRQKMNHQN	0.161	0.672
KKHKAGQKQKIN	0.0948	0.579
ARWIVGLWRGAS	0.398	0.684

Sequence	protein stability index [1]	protein stability index [2]
LKILRQKMNHKN	0.484	0.678
PSLACSFWRVVG	0.139	0.675
CTSCGYKFRTNS	0.465	0.697
RLIRPLPVQFLN	0.0343	0.593
ARWRVGLWRGAA	0.17	0.675
LVVYLSCVACMN	0.0204	0.0497
RLICPLPVQFLN	0.0408	0.562
ARWRVGLKRGAS	0.627	0.663
PDKRNHVIKLLN	0.0941	0.605
FSMRWTFRYLVN	0.0662	0.479
LKVYLSCVACIN	0.0444	0.14
VRGAVEGWRLVG	0.19	0.692
VRGAVGGWRLHG	0.226	0.662
HSLAASFWRVVG	0.121	0.691
CTSCGYKLRTNN	0.471	0.678
PTLAASFWRVVG	0.162	0.703
FSMRWTFRWWVN	0.0591	0.462
RLIQPFPVQFLN	0.09	0.778
PVLAASFWRVVG	0.161	0.68
PDKRNHLITLLN	0.315	0.622
VRGAVGYWRLVG	0.152	0.668
